# Laboratory results reported in the supplement of paper PMC10471632, “Protein engineering and iterative multimodule optimization for vitamin B6 production in Escherichia coli” (Nature Communications, 2023).
# ± gives the standard deviation of the averaged measurements.
# B1: library; numbered along this chain (parent)
# chain: MAELLLGVNIDHIATLRNARGTAYPDPVQAAFIAEQAGADGITVHLREDRRHITDRDVRILRQTLDTRMNLEMAVTEEMLAIAVETKPHFCCLVPEKRQEVTTEGGLDVAGQRDKMRDACKRLADAGIQVSLFIDADEEQIKAAAEVGAPFIEIHTGCYADAKTDAEQAQELARIAKAATFAASLGLKVNAGHGLTYHNVKAIAAIPEMHELNIGHAIIGRAVMTGLKDAVAEMKRLMLEARG
# Variants of: B1
# Assay: pyridoxine titer in culture supernatant of strain expressing the PdxJ variant; higher = more PN produced (higher in vivo pathway activity of the PdxJ variant)
# Conditions: host strain: E. coli LL006; 48 h; temperature: 37 °C; FM1.4
# Protocol: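 Rosetta-designed single to quadruple mutants of E. coli PdxJ (PNP synthase) were expressed from pRSFDuet-1 in the engineered chassis E. coli LL006 (MG1655 ΔpdxH::pdxST, pta::Eme_pdxP). Strains were grown in 24 deep-well plates in 2 mL FM1.4 glycerol medium at 37 °C and 800 rpm for 48 h. Extracellular pyridoxine (PN) titer was quantified by HPLC with fluorescence detection; two biological replicates, with the WT pdxJ strain (LL137, about 0.5 mg/L) as control.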
row,Variant,pyridoxine titer
1,MAELLLGVNLDHIATLRNCRGTAYPDPVQAAFIAEQAGADGITVHLREDRRHITDRDVRILRQTLDTRMNLEMAVTEEMLAIAVETKPHFCCLVPEKRQELTTTGGLDVAGQRDKMRDACKRLADAGIQVSLFIDADEEQIKAAAEVGAPFIEIHTGCYADAKTDAEQAQELARIAKAATFAASLGLKVNAGHGLTYHNVKAIAAIPEMHELNIGHAIIGRAVMTGLKDAVAEMKRLMLEARG [I10L A19C V101L E104T],0.41 ± 0.019 mg/L
2,MAELLLLVNIDHIATLRNARGTAYPDPVQAAFIAEQAGADGITVHLREDRRHITDRDVRILRQTLDTRMNLEMAVTEEMLAIAVETKPHFCCLVPEKRQEVTLTGGLDVAGQRDKMRDACKRLADAGIQVSLFIDADEEQIKAAAEVGAPFIEIHTGCYADAKTDAEQAQELARIAKAATFAASLGLKVNAGHGLTYHNVKAIAAIPEMHELNIGHAIIGRAVMTGLKDAVAEMKRLMLEARG [G7L T103L E104T],7.1 ± 0.35 mg/L
3,MAELLLIVNIDHIATLRNARGTAYPDPVQAAFIAEQAGADGITVHLREDRRHITDRDVRILRQTLDTRMNLEMAVTEEMLAIAVETKPHFCCLVPEKRQEVTTTGGLDVAGQRDKMRDACKRLADAGIQVSLFIDADEEQIKAAAEVGAPFIEIHTGCYADAKTDAEQAQELARIAKAATFAASLGLKVNAGHCLTYHNVKAIAAIPEMHELNIGHALIGRAVMTGLKDAVAEMKRLMLEARG [G7I E104T G194C I218L],2.32 ± 0.19 mg/L
4,MAELLLMVNIDHIATLRNARGTAYPDPVQAAFIAEQAGADGITVHLREDRRHITDRDVRILRQTLDTRMNLEMAVTEEMLAIAVETKPHFCCLVPEKRQEVTTTGGLDVAGQRDKMRDACKRLADAGIQVSLFIDADEEQIKAAAEVGAPFIEIHTGCYADAKTDAEQAQELARIAKAATFAASLGLKVNAGHCLTYHNVKAIAAIPEMHELNIGHALIGRAVMTGLKDAVAEMKRLMLEARG [G7M E104T G194C I218L],0.955 ± 0.033 mg/L
5,MAELLLLVNIDHIATLRNARGTAYPDPVQAAFIAEQAGADGITVHLREDRRHITDRDVRILRQTLDTRMNLEMAVTEEMLAIAVETKPHFCCLVPEKRQEVTTEGGLDVAGQRDKMRDACKRLADAGIQVSLFIDADEEQIKAAAEVGAPFIELHTGCYADAKTDAEQAQELARIAKAATFAASLGLKVNAGHGLTYHNVKAIAAIPEMHELNIGHAIIGRAVMTGLKDAVAEMKRLMLEARG [G7L I154L],0.82 ± 0.68 mg/L
6,MAELLLLVNIDHIATLRNARGTAYPDPVQAAFIAEQAGADGITVHLREDRRHITDRDVRILRQTLDTRMNLEMAVTEEMLAIAVETKPHFCCLVPEKRQEVTTEGGLDVAGQRDKMRDACKRLADAGIQVSLFIDADEEQIKAAAEVGAPFIEIHTGCYADAKTDAEQAQELARIAKAATFAASLGLKVNAGHGLTYHNVKAIAAIPEMHELIIGHAIIGRAVMTGLKDAVAEMKRLMLEARG [G7L N213I],0.6 ± 0.11 mg/L
7,MAELLLGVNLDHIATLRNARGTTYPDPVQAAFIAEQAGADGITVHLREDRRHITDRDVRILRQTLDTRMNLEMAVTEEMLAIAVETKPHFCCLVPEKRQIVTTEGGLDVAGQRDKMRDACKRLADAGIQVSLFIDADEEQIKAAAEVGAPFIEIHTGCYADAKTDAEQAQELARIAKAATFAASLGLKVNAGHGLTYHNVKAIAAIPEMHELNIGHAIIGRAVMTGLKDAVAEMKRLMLEARG [I10L A23T E100I],4.81 ± 0.11 mg/L
8,MAELLLLVNIDHIATLRNARGTAYPDPVQAAFIAEQAGADGITVHLREDRRHITDRDVRILRQTLDTRMNLEMAVTEEMLAIAVETKPHFCCLVPEKRQEVTTEGGLDVAGQRDKMRDACKRLADAGIQVSLFIDADEEQIKAAAEVGAPFIEIHTGCYADAKTDAEQAQELARIAKAATFAASLGLKVNAGHGLTYHNVKAIAAIPEMHELNIGHALIGRAVMTGLKDAVAEMKRLMLEARG [G7L I218L],0.76 mg/L
9,MAELLLGVNLDHIATLRNARGTTYPDPVQAAFIAEQAGADGITVHLREDRRHITDRDVRILRQTLDTRMNLEMAVTEEMLAIAVETKPHFCCLVPEKRQEVTLEGGLDVAGQRDKMRDACKRLADAGIQVSLFIDADEEQIKAAAEVGAPFIEIHTGCYADAKTDAEQAQELARIAKAATFAASLGLKVNAGHGLTYHNVKAIAAIPEMHELNIGHAIIGRAVMTGLKDAVAEMKRLMLEARG [I10L A23T T103L],0.24 mg/L
10,MAELLLGVNLDHIITLRNARGTAYPDPVQAAFIAEQAGADGITVHLREDRRHITDRDVRILRQTLDTRMNLEMAVTEEMLAIAVETKPHFCCLVPEKRQELTTEGGLDVAGQRDKMRDACKRLADAGIQVSLFIDADEEQIKAAAEVGAPFIEIHTGCYADAKTDAEQAQELARIAKAATFAASLGLKVNAGHGLTYHNVKAIAAIPEMHELNIGHAIIGRAVMTGLKDAVAEMKRLMLEARG [I10L A14I V101L],0.31 ± 0.014 mg/L
11,MAELLLGVNLDHIATLRNARGTTYPDPVQAAFIAEQAGADGITVHLREDRRHITDRDVRILRQTLDTRMNLEMAVTEEMLAIAVETKPHFCCLVPEKRQEVTTEGGLDVAGQRDKMRDACKRLADAGIQVSLFIDADEEQIKAAAEVGAPFIEIHTGCYADAKTDAEQAQELARIAKAATFAASLGLKVNAGHGLTYHNVKAIAAIPEMHELNIGHAIIGRAVMTGLKDAVAEMKRLMLEARG [I10L A23T],1.39 ± 0.2 mg/L
12,MAELLLGVNLDHIATLRNARGTTYPDPVQAAFIAEQAGADGITVHLREDRRHITDRDVRILRQTLDTRMNLEMAVTEEMLAIAVETKPHFCCLVPEKRQEVTTTGGLDVAGQRDKMRDACKRLADAGIQVSLFIDADEEQIKAAAEVGAPFIEIHTGCYADAKTDAEQAQELARIAKAATFAASLGLKVNAGHGLTYHNVKAIAAIPEMHELNIGHAIIGRAVMTGLKDAVAEMKRLMLEARG [I10L A23T E104T],6.49 ± 0.071 mg/L
